We go through one molecule from patent US20030096355A1 (published 2003).

Test [1] addresses T1, human OPGL ligand (amino acids 159-318) (human, UniProt O14788 159-317).
T1 construct: range 159-318; Expressed in E. coli; The printed range may run past the end of the UniProt entry
T1 sequence (looked up): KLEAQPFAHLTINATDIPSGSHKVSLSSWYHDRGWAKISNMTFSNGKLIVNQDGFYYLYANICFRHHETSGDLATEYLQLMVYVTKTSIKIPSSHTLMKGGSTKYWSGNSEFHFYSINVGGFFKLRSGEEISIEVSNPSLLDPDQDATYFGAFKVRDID
Description: SPR, Biacore 2000, 25° C; ymkz5-receptor immobilized on CM5 chip, ligand injected. On the procedure:
(§1) Binding studies were performed to determine if various TNF ligand family members are ligands for the ymkz5-receptor. The only TNF ligand which bound to the ymkz5-receptor was murine TRAIL. The binding studies, based on surface plasmon resonance, were carried out with the automated, high throughput Biacore 2000 system at 25° C. according to the manufacturer's instructions (Biacore, Uppsula, Sweden) as follows:
(§2) The receptor was immobilized on a CM5 research grade amine coupling chip (Biacore) by placing 40 μg/ml of recombinant ymkz5-receptor diluted in HEPES buffered saline (HBS-P; Biacore) at pH 4.5 on the chip. The ligands were diluted in HSP-B buffer containing 10 μg/ml BSA and 4 mg/ml dextran to block nonspecific binding sites. The ligand samples were injected over the receptors at concentrations ranging from 2 nM to 100 nM. The chips were regenerated between ligand injections by washing 2 times for 3 minutes in 25 mM CAPS, 1 M NaCl pH 10.5.
(§3) The TNF ligands tested were: human flag TRAIL (amino acids 95-281, Genbank accession no. AAC50332), murine flag TRAIL (amino acids 99-291, Genbank accession no. NP 033451), murine Fc TRAIL, human OPGL ligand (amino acids 159-318), murine OPGL ligand (amino acids 159-316), human TNFα (amino acids 82-233, Genbank accession no. CAA26669), and murine TNFα (amino acids 82-233, Genbank accession no. CAA68530). The extracellular and […] portions of the ligands were recombinantly expressed in E.coli. Specifically, the denoted amino acids for each ligand indicate the portion of the ligand expressed recombinantly. Additionally, commercially available human Fas ligand (Alexis Biochemicals, San Diego, Calif.) was also tested.. Human DR5Fc, a known TRAIL receptor, was used as a control. Results of the assay were determined by detecting the change in mass on the chip as measured by changes in […] on the chip as indicated as resonance units.
For orientation: Surface plasmon resonance follows binding to a sensor surface in real time, without labels.

Test [2] has as its target T2, human flag TRAIL (amino acids 95-281, Genbank accession no. AAC50332) (human, UniProt P50591 95-281).
T2 construct: range 95-281; Expressed in E. coli; not shown: flag tag
Described as above. On the procedure:
as §1, §2, §3

Test [3] has as its target T3, murine OPGL ligand (amino acids 159-316) (murine, UniProt O35235 159-316).
T3 construct: range 159-316; Expressed in E. coli
T3 sequence (looked up): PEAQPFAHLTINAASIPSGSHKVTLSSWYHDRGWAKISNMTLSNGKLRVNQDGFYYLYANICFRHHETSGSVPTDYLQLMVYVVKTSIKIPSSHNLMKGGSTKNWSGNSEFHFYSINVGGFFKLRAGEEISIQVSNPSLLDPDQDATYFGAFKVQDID
The description is as above. Here is the method: as §1, §2, §3

Test [4] deals with T4, human TNFα (amino acids 82-233, Genbank accession no. CAA26669) (human, UniProt P01375 82-233).
T4 construct: range 82-233; Expressed in E. coli
Described as above. Here is the method:
as §1, §2, §3

In test [5] the target is T5, human Fas ligand (Alexis Biochemicals) (human, UniProt P48023 103-281, limits assumed).
T5 construct: Bought; construct not described
T5 sequence (looked up): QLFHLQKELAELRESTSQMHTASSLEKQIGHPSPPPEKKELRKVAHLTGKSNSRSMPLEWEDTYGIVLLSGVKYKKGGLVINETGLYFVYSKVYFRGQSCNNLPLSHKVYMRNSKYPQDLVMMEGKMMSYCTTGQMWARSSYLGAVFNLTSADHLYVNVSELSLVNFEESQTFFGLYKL
The test is described as above. Here is the method: as §1, §2, §3

The target in test [6] is T6, murine TNFα (amino acids 82-233, Genbank accession no. CAA68530) (murine, UniProt P06804 82-233).
T6 construct: range 82-233; Expressed in E. coli
T6 sequence (looked up): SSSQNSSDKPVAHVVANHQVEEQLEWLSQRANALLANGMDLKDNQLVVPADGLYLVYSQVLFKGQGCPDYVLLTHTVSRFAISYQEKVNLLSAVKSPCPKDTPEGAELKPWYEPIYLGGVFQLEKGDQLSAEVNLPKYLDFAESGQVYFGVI
The test is described as above. Here is the method: as §1, §2, §3

The next test has as its target T7, active murine TRAIL (murine, UniProt P50592 99-291).
T7 construct: The result is told only for 'active murine TRAIL which was bioactive in cell culture assays'; The construct (flag-tagged 99-291 or Fc fusion) is not tied to the KD; also called murine flag TRAIL; murine Fc TRAIL
T7 sequence (looked up): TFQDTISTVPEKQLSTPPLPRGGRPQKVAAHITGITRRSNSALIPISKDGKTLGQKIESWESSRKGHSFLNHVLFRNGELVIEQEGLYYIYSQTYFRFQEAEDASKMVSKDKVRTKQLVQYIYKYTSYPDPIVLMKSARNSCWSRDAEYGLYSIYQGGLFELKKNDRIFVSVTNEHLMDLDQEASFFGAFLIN
In words: SPR, Biacore 2000, 25° C; ymkz5-receptor amine-coupled on CM5 chip, ligand injected at 2 nM to 100 nM; receptor on the chip; active (bioactive) murine TRAIL as ligand. Here is the method: as §1
The receptor was immobilized on a CM5 research grade amine coupling chip (Biacore) by placing 40 μg/ml of recombinant ymkz5-receptor diluted in HEPES buffered saline (HBS-P; Biacore) at pH 4.5 on the chip. The ligands were diluted in HSP-B buffer containing 10 μg/ml BSA and 4 mg/ml dextran to block nonspecific binding sites. […]
The TNF ligands tested were: human flag TRAIL (amino acids 95-281, Genbank accession no. AAC50332), murine flag TRAIL (amino acids 99-291, Genbank accession no. NP 033451), murine Fc TRAIL, human OPGL ligand (amino acids 159-318), murine OPGL ligand (amino acids 159-316), human TNFα (amino acids 82-233, Genbank accession no. CAA26669), and murine TNFα (amino acids 82-233, Genbank accession no. CAA68530). […] Results of the assay were determined by detecting the change in mass on the chip as measured by changes in […] on the chip as indicated as resonance units.

T4 sequence (P01375 82-233 limits assumed): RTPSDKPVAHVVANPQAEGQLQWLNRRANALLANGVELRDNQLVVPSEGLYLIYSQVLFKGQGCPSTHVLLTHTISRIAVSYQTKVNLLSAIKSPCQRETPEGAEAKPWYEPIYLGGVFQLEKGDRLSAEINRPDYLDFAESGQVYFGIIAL
T2 sequence (P50591 95-281 limits assumed): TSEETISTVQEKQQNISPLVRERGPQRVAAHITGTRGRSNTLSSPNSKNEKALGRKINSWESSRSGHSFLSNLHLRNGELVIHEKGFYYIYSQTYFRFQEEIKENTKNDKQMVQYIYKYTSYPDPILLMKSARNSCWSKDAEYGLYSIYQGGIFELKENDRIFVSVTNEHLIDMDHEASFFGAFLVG

B1: recombinant ymkz5-receptor (receptor)
chain: MPESYSFNCPDGEYQSNDVCCKTCPSGTFVKAPCKIPHTQGQCEKCHPGTFTGKDNGLHDCELCSTCDKDQNMVADCSATSDRKCECQIGLYYYDPKFPESCRPCTKCPQGIPVLQECNSTANTVC
In general, Kd refers to a measure of binding affinity in units of concentration. Lower therefore signals a tighter complex. As to B1, the binding result in test [1], in test [2], in test [3], in test [4], in test [5] and in test [6] was “no binding” in each case. In the test with active murine TRAIL, this molecule yielded a Kd of 20.8 nM.
